Assay [1] addresses T1, PstS1 (Rv0934), recombinant, wild type (Mycobacterium tuberculosis, UniProt P9WGU1). The assay can be described thus: SPR. On the technique in general: SPR reads the build-up and loss of mass on a sensor chip optically.
The target in assay [2] is T1, PstS1 (Rv0934), recombinant, wild type. As to the kind of experiment: SPR. The source holds these as a separate data set.

The term Kd denotes the free concentration of one partner at which half of the binding sites on the other are occupied at equilibrium, for simple one-to-one binding.

Read-outs that look alike come from different tables or passages of the source.

T1 sequence (P9WGU1 25-374): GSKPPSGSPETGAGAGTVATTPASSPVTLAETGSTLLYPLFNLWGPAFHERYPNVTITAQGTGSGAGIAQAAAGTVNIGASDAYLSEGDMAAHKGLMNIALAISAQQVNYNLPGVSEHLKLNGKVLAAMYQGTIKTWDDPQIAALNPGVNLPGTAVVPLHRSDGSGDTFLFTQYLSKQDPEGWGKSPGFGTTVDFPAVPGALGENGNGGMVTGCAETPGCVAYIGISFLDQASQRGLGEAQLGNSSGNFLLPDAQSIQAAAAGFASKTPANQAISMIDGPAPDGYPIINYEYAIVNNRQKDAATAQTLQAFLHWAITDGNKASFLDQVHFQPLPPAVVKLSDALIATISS

B1: mAb p4-163 (human IgG1) (antibody, V domains shown)
VH: EVQLVESGGGLVKPGGSLRLSCAASGFTFESHRMHWVRQAPGKGLEWVSSIISSRTYIYYADSVKGRFTISRDNSRNSLFLQMNSLRAEDTAVYYCARGDYYYDGVASDPHFDNWGQGTLVTVSS
VL: QSVLTQPPSASGTPGQRVTISCSGGRSNIGSNYVYWFQQLPGTAPQLLIYRNIQRPSGVPARFSGSKSGTSASLAISGLRSEDEADYYCATWDDSLSGVVFGGGTKVTVL
In the case of B1, in assay [1], the Kd was 4.45 nM.

B2: mAb p4-170 (human IgG1) (antibody, V domains shown)
VH: EVQLVESGGGLVKPGGSLRLSCAASGFTFSSHRMHWVRQAPGKGLEWVSSIISSRTYIYYADSVKGRFTISRDNSGNSLFLQMNSLRVEDTAVYYCARGDYYYDGVASDPHFDNWGQGTLVTVSS
VL: QSVLTQTPSASGTPGQRVTISCSGSRSNIGSNYVYWFQQFPGAAPQLLIYRNIQRPSGVPARFSGSKSDTSASLAISGLRSEDEAHYYCAAWDDSLSGVVFGGGTKVTVL
On to B2, for which, in assay [1], the dissociation constant Kd stood at 1.34 nM.

B3: p4-36gl, predicted germline version of mAb p4-36 (antibody, V domains shown)
VH: EVQLVESGGGLVQPGRSLRLSCTASGFTFGDYAMSWVRQAPGKGLEWVGFIRSKAYGGTTEYAASVKGRFTISRDDSKSIAYLQMNSLKTEDTAVYYCTGPRPYYDSSGYYPYYFDYWGQGTLVTVSS
VL: QSALTQPRSVSGSPGQSVTISCTGTSSDVGGYNYVSWYQQHPGKAPKLMIYDVSKRPSGVPDRFSGSKSGNTASLTISGLQAEDEADYYCCSYAGSYTYVVFGGGTKLTVL
As for B3, in assay [2], the Kd is 6.85 nM.

The record behind these values is publication PMC7840946 (2021).
